Biological target: Leptin receptor
Experiment: cell-based or functional assay

B1: BLV1H12 hLeptin fusion protein (antibody, human IgG1)
heavy: not shown
light: QAVLNQPSSVSGSLGQRVSITCSGSSSNVGNGYVSWYQLIPGSAPRTLIYGDTSRASGVPDRFSGSRSGNTATLTISSLQAEDEADYFCASAEDSSSNAVFGSGTTLTVLGQPKSPPSVTLFPPSTEELNGNKATLVCLISDFYPGSVTVVWKADGSTITRNVETTRASKQSNSKYAASSYLSLTSSDWKSKGSYSCEVTHEGSTVTKTVKPSECS
- EC50 (Baf3-LepR cell proliferation, AlamarBlue): 57.5 pM

Source: US20150376264A1 (CALIFORNIA INSTITUTE FOR BIOMEDICAL RESEARCH, published 2015)
